Experimental data from paper PMC8184850, “Cryo-EM structure of TFIIH/Rad4–Rad23–Rad33 in damaged DNA opening in nucleotide excision repair” (Nature Communications, 2021).
One block for each binder: values may come before it.

B2: Ssl2 (natural protein, Saccharomyces cerevisiae, UniProt Q00578 1-843, looked up)
chain: MTDVEGYQPKSKGKIFPDMGESFFSSDEDSPATDAEIDENYDDNRETSEGRGERDTGAMVTGLKKPRKKTKSSRHTAADSSMNQMDAKDKALLQDTNSDIPADFVPDSVSGMFRSHDFSYLRLRPDHASRPLWISPSDGRIILESFSPLAEQAQDFLVTIAEPISRPSHIHEYKITAYSLYAAVSVGLETDDIISVLDRLSKVPVAESIINFIKGATISYGKVKLVIKHNRYFVETTQADILQMLLNDSVIGPLRIDSDHQVQPPEDVLQQQLQQTAGKPATNVNPNDVEAVFSAVIGGDNEREEEDDDIDAVHSFEIANESVEVVKKRCQEIDYPVLEEYDFRNDHRNPDLDIDLKPSTQIRPYQEKSLSKMFGNGRARSGIIVLPCGAGKTLVGITAACTIKKSVIVLCTSSVSVMQWRQQFLQWCTLQPENCAVFTSDNKEMFQTESGLVVSTYSMVANTRNRSHDSQKVMDFLTGREWGFIILDEVHVVPAAMFRRVVSTIAAHAKLGLTATLVREDDKIGDLNFLIGPKLYEANWMELSQKGHIANVQCAEVWCPMTAEFYQEYLRETARKRMLLYIMNPTKFQACQFLIQYHERRGDKIIVFSDNVYALQEYALKMGKPFIYGSTPQQERMNILQNFQYNDQINTIFLSKVGDTSIDLPEATCLIQISSHYGSRRQEAQRLGRILRAKRRNDEGFNAFFYSLVSKDTQEMYYSTKRQAFLVDQGYAFKVITHLHGMENIPNLAYASPRERRELLQEVLLKNEEAAGIEVGDDADNSVGRGSNGHKRFKSKAVRGEGSLSGLAGGEDMAYMEYSTNKNKELKEHHPLIRKMYYKNLKK
notes: Ssl2 (XPB homologue), subunit of yeast coreTFIIH; C-Ssl2 549–776, C-terminal region 771–843 as printed; Stood in the assays as part of coreTFIIH; also called yeast homologue of XPB; source: purified from yeast as a subunit of coreTFIIH

What was measured:
Conditions in all cases: both partners purified
Ssl2 = molecular target: B2; assay: cryo-EM structure; coreTFIIH and Rad4–Rad23–Rad33 on −24*/+24 AAF-DNA with ATP, glycerol gradient with glutaraldehyde; Map 1 3.86 Å (TFIIH), Map 2 9.2 Å, Map 3 7.9 Å; Rad4, Rad33 and the Tfb1 PH domain placed by rigid-body docking of known structures or homology models
Rad4–Rad23–Rad33 complex = molecular target: T1, Rad4–Rad23–Rad33 complex (yeast, UniProt P14736 1-754; P32628 1-398; Q04231 1-177); assay: cross-linking; XL-MS: TFIIH/Rad4–Rad23–Rad33 assembled on −24/+24 AAF-DNA, 1 mg/mL in 20 mM HEPES pH 7.6, 300 mM potassium acetate, 5% glycerol, 5 mM DTT; 6 mM DSBU on ice 2 h; MeroX, FDR <1%
T1 construct: Rad4 (XPC homologue), yeast; Rad23 (RAD23B homologue), yeast; Rad33 (CETN2 homologue), yeast; plasmid pETDuet-RAD33; also called Rad4–23–33; yeast homologue of XPC–RAD23B–CETN2; copies: + +
T1 sequence 1: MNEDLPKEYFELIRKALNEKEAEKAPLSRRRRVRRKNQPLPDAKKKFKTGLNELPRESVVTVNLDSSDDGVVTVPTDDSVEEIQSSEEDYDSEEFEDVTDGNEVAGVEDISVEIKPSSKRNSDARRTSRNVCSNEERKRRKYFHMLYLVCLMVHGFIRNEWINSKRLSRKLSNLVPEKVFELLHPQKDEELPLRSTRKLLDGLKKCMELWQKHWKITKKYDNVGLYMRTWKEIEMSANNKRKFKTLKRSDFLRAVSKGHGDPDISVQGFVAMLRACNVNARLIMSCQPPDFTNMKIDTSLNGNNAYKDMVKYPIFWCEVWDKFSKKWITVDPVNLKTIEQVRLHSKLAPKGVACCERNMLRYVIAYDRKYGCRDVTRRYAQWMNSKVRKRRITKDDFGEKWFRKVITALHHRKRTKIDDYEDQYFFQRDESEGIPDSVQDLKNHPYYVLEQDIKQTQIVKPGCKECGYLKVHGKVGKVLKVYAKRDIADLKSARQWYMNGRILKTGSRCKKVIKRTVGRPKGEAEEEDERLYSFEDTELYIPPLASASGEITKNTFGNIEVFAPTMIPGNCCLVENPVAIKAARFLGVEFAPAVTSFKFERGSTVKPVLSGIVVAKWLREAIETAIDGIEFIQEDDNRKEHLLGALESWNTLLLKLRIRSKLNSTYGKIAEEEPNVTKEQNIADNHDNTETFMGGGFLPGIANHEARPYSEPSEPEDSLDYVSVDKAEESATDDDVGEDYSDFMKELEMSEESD
T1 sequence 2: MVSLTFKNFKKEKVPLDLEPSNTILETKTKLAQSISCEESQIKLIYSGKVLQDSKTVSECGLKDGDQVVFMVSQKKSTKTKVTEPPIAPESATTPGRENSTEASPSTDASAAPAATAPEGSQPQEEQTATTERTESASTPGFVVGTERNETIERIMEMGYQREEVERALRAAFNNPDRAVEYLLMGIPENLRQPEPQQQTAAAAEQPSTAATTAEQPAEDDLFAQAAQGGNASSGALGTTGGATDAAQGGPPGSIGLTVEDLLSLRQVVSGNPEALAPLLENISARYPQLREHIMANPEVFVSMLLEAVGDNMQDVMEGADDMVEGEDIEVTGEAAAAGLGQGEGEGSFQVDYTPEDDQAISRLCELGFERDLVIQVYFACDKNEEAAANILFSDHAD
T1 sequence 3: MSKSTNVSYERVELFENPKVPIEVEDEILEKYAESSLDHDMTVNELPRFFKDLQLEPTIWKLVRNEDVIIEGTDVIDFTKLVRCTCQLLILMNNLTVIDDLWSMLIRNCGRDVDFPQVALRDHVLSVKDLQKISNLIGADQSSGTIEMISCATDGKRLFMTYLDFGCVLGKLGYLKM

Rad3 = molecular target: T2, Rad3 (yeast, UniProt P06839 1-778); assay: cryo-EM structure; coreTFIIH and Rad4–Rad23–Rad33 on −24*/+24 AAF-DNA with ATP, glycerol gradient with glutaraldehyde; Map 1 3.86 Å (TFIIH), Map 2 9.2 Å, Map 3 7.9 Å; Rad4, Rad33 and the Tfb1 PH domain placed by rigid-body docking of known structures or homology models
T2 construct: Rad3 (XPD homologue), subunit of yeast coreTFIIH; Stood in the assays as part of coreTFIIH; also called yeast homologue of XPD; source: purified from yeast as a subunit of coreTFIIH
T2 sequence (looked up): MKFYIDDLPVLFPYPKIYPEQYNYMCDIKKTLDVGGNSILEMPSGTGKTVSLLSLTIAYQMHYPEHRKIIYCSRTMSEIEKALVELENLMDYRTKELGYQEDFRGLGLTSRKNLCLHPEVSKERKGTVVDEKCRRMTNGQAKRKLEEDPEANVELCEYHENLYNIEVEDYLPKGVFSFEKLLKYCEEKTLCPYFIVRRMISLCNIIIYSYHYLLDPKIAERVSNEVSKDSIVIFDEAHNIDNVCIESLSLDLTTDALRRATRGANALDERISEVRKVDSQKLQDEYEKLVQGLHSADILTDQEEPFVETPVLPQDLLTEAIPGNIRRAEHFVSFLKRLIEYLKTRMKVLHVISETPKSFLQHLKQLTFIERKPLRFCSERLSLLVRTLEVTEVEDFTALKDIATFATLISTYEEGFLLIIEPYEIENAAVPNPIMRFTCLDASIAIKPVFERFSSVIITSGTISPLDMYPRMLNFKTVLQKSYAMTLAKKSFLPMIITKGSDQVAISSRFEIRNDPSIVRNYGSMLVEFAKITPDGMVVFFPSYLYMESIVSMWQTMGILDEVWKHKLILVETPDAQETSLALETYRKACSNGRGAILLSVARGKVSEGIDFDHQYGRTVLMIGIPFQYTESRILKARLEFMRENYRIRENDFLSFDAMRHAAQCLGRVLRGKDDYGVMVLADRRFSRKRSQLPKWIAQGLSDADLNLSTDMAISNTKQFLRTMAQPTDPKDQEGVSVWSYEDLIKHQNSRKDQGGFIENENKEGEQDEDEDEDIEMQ

binding result (Ssl2): binds
B1: Tfb2 (natural protein, yeast, UniProt Q02939 1-513, looked up)
chain: MSDYSLKHSVTQYLEEIPQQVQNRLYTSPATCLAIYRILPPLAKFFIMAMVFNENEVPLLDLDKWVNSNGKLQFQNAIKSMKSLHLLIPNKSSGTLMINLNPTFKISLRNALTGGEVQNSFGVVVEENVVSLDLLDEYSANKWETILHFMVGTPLAKIPSEKVLNLLKHSKLMEEVNSTGEFKITNEGFQFLLQEINSQLWTLLLQYLKMIETSKMDLVDVLHFIFMLGALEVGKAYKIDALSETQRIMLQDMRDYGLVFQKHSNDSIFYPTKLALMLTSDTKTIRSASNAMDSVLRQNREEPSVNEDGANGKSTTDITTSDDLNKAGLKNQDIPDGSLIVETNFKIYSYSNSPLQIAVLSLFVHLKARFVNMVLGQITRESIRRALTNGITADQIIAYLETHAHPQMRRLAEEKLEKKLELDPNCKEPLQVLPPTVVDQIRLWQLELDRVITYEGSLYSDFETSQEYNLLSKYAQDIGVLLWKDDKKKKFFISKEGNSQVLDFAKRKLKKKQ
notes: Tfb2 (p52 homologue), subunit of yeast coreTFIIH; Tfb2C 412–513 as printed; Stood in the assays as part of coreTFIIH; also called yeast homologue of p52; source: purified from yeast as a subunit of coreTFIIH

Binder: B2
binding result (Rad4–Rad23–Rad33 complex): binds

binding result (Rad3): binds
B3: Ssl1 (natural protein, yeast, UniProt Q04673 1-461, looked up)
chain: MAPVVISESEEDEDRVAITRRTKRQVHFDGEGDDRVDQQQQQHSSSHRDRDKHVQRKKKKRLSNRNLQGSNGGYAWEDEIKRSWDLVKVDDEGDMASLVASIVEARKKRTAKKNITPYQRGIIRSLILTLDCSEAMLEKDLRPNRHAMIIQYAIDFVHEFFDQNPISQMGIIIMRNGLAQLVSQVSGNPQDHIDALKSIRKQEPKGNPSLQNALEMARGLLLPVPAHCTREVLIVFGSLSTTDPGDIHQTIDSLVSEKIRVKVLGLSAQVAICKELCKATNYGDESFYKILLDETHLKELFNEAVTPLPVNKINKGFTLVKMGFPTRIFEDTPTFCSCHSKLVYGGYFCPNCHSKVCSLPTVCPCCDLMLILSTHLARSYHHLMPLKTFAEVPTTEKFRSEDCFSCQSRFPILKNHKNGKLLTSSRYRCEDCKQEFCVDCDVFIHEILHNCPGCESKPVIT
notes: Ssl1 (p44 homologue), subunit of yeast coreTFIIH; Stood in the assays as part of coreTFIIH; also called yeast homologue of p44; source: purified from yeast as a subunit of coreTFIIH
